Laboratory results reported in patent US10202593B2, “Evolved sortases and uses thereof” (President and Fellows of Harvard College, priority 2013, dated 2019).

Test system: SUMO-TEV site-FGF1-LPESG-His6
Assay: FGF dual labeling / circularization of GGG-FGF-LPESG
Format: biochemical
Conditions: 0.2 eq enzyme, 10 or 100 μM Btn-LAETG, 4 hours
Protocol: SUMO-TEV site-FGF1-LPESG-His6 (SEQ ID NO: 27), 0.5 eq TEV protease, and either 0.2 eq eSrtA or eSrtA(2A-9) were incubated in the presence of 10 or 100 μM Btn-LAETG (SEQ ID NO: 5) for 4 hours. The protein contains a GGG near its N-terminus masked by a TEV protease cleavage site, and a LPESG (SEQ ID NO: 3) near its C-terminus to serve as a substrate for downstream conjugation. In situ digestion of the TEV cleavage site exposes an N-terminal GGG, which in theory can serve as the substrate for subsequent conjugation with an LAETG-containing peptide (SEQ ID NO: 5). […] His6: SEQ ID NO: 6.
SUMO-TEV-FGF-LPESG-His6 (SEQ ID NO: 27) conjugates were treated with 0.2 eq eSrtA(4S-9), 1 mM GGG-PEG and 10 mM CaCl2 in TBS and incubated at room temperature at 500 μL final volumes. These samples were then quenched by the addition of 100 μM H2N-LPESGG (SEQ ID NO: 38) peptide and 100 μL of pre-equilibrated Ni-NTA resin slurry in TBS, then incubated on ice for 15 minutes. This mixture was then passed through a 0.2 μm spin filter, diluted 1:10 into PBS+10 μM H2N-LPESGG (SEQ ID NO: 38) peptide, and concentrated against a 10 kDa MWCO spin concentrator to a final volume of 400 μL. This process was repeated five times to afford the crude SUMO-TEV-FGF-LPESGGG-PEG (SEQ ID NO: 39) conjugates. […] Protein concentrations were determined by BCA assay. […]

B1: eSrtA (protein)
chain: QAKPQIPKDKSKVAGYIEIPDADIKEPVYPGPATREQLNRGVSFAEENESLDDQNISIAGHTFIDRPNYQFTNLKAAKKGSMVYFKVGNETRKYKMTSIRNVKPTAVEVLDEQKGKDKQLTLITCDDYNEETGVWETRKIFVATEVK
  circularization of GGG-FGF-LPESG: resulting in circularization

B2: eSrtA(2A-9): P94R, S102C, A104H, E105D, K138P, K152I, N160K, K162H, T164N, D165A, K173E, I182V, K190E, T196S (protein)
chain: QAKPQIPKDKSKVAGYIEIPDADIKEPVYPGPATREQLNRGVCFHDENESLDDQNISIAGHTFIDRPNYQFTNLKAAKPGSMVYFKVGNETRIYKMTSIRKVHPNAVEVLDEQEGKDKQLTLVTCDDYNEETGVWESRKIFVATEVK
  circularization of GGG-FGF-LPESG: does not generate detectable levels of circularized GGG-FGF protein
